The results in this text go back to article PMC10070764, “S100B chaperone multimers suppress the formation of oligomers during Aβ42 aggregation” (Frontiers in Neuroscience, 2023).

The target in data set [1] is amyloid-β 1–42 (Aβ42) peptide (UniProt P05067 672-713). The data set is described as follows: cell-based or functional assay.
Data set [2] deals with the molecule itself. The data set is described as follows: SEC + other: electrophoresis; oligomeric state validation of the purified S100B dimer and tetramer preparations, as described (Figueira et al., 2022); conditions not given.

amyloid-β 1–42 (Aβ42) peptide, sequence (P05067 672-713): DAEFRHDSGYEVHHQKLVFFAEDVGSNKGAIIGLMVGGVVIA

B1: tetrameric S100B (natural protein, human, UniProt P04271 1-92, looked up)
chain: MSELEKAMVALIDVFHQYSGREGDKHKLKKSELKELINNELSHFLEEIKEQEVVDKVMETLDNDGDGECDFQEFMAFVAMVTTACHEFFEHE
notes: Same chain as m1, isolated as the tetramer; used in the aggregation assays in the Ca^2+-free (apo) state (1.1 mM EDTA); also called apo-S100B tetramer; tetrameric apo-S100B; source: E. coli BL21 (DE3) E. Cline Express, purified to homogeneity
Usually stoichiometry N stands for the number of molecules, sites or subunits per partner or assembly. Turning to B1, the “ThT-subtracted X-34 kinetic traces of Aβ42 (2 μM) aggregation: X-34 positive AβO relative to Aβ42 alone, apo-S100B tetramer:Aβ42 ratios up to 0.5 (effect already at 0.25)” value in data set [1] was found to be 25%. In addition, the “stoichiometry N” value in data set [2] came to 4.

B2: dimeric S100B (natural protein, human, UniProt P04271 1-92, looked up)
chain: B1 chain
notes: also called S100B-Ca^2+ dimer; dimeric S100B-Ca^2+; source: E. coli BL21 (DE3) E. Cline Express, purified to homogeneity
Regarding B2, the “stoichiometry N” value in data set [2] turned out to be 2.
